Results from patent publication US20190309079A1 (Regeneron, published 2019).

T1: extracellular domain of human LEPR (amino acids 22-839 of P48357, Isoform B) with N-terminal myc-myc tag, … (human, UniProt P48357 22-839, GPI anchor at the C-terminus)
T1 construct: also called HEK293/Mycx2-hLepR(Ecto)-GPI anchored cells
T1 sequence: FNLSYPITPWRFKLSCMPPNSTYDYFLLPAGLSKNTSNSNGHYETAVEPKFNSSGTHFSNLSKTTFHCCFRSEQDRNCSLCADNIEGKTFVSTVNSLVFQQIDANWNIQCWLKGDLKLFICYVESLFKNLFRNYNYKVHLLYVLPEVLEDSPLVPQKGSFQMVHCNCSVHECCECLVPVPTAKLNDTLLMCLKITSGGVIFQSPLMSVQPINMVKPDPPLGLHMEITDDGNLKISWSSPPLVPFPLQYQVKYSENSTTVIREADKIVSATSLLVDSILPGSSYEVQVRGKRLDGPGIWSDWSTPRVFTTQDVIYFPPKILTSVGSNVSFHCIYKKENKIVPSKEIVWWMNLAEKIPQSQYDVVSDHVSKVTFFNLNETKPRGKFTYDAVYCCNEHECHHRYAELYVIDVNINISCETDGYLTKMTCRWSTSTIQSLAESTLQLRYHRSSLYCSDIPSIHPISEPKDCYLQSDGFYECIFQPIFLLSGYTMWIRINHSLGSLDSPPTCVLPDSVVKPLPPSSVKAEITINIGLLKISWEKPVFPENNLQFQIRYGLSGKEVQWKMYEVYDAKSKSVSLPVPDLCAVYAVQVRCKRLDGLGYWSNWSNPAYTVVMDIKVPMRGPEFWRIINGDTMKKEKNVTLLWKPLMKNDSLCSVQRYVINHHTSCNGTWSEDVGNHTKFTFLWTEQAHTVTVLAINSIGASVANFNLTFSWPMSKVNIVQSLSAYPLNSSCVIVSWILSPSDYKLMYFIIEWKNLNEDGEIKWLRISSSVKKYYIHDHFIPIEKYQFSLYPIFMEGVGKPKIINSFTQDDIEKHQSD

T2: full length human LEPR (amino acids 1-1165 of P48357, Isoform B) on cells (human, UniProt P48357 22-1165)
T2 construct: also called HEK293/Stat3-luc/hLEPR-FL; HEK293/Stat3-hLEPR-FL
T2 sequence: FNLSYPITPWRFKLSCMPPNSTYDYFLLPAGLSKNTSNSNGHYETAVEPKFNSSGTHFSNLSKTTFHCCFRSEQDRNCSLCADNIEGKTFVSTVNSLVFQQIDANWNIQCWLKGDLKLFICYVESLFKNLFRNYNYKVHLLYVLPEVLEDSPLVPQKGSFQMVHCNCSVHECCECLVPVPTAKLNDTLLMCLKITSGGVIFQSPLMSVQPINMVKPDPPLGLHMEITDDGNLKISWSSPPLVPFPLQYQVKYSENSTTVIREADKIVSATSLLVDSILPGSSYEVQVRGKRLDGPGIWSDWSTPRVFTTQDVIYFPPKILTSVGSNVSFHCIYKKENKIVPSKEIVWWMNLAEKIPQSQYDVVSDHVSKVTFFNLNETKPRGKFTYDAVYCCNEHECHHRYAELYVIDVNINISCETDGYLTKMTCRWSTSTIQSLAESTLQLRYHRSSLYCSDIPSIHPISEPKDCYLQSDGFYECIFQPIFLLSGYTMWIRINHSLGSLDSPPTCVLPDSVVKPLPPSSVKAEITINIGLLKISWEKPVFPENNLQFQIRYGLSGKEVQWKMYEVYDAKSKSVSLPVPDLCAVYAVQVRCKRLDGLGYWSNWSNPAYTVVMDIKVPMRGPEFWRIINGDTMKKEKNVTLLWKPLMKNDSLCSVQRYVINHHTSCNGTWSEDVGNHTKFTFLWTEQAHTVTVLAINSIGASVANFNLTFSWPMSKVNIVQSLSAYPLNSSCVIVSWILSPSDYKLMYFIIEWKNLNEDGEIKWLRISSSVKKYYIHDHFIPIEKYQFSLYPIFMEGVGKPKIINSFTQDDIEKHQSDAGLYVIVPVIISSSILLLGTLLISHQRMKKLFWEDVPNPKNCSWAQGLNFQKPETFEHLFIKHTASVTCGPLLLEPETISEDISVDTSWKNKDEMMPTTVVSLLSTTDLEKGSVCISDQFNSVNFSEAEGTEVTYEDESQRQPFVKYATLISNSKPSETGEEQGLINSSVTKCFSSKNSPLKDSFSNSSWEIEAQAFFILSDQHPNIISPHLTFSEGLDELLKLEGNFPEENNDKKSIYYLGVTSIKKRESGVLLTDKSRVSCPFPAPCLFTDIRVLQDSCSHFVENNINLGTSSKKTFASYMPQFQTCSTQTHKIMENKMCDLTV


Experiments:
[1] = target: T1, extracellular domain of human LEPR …; assay: FACS, 70 nM Ab, HEK293/hLEPR-GPI, no Leptin
[2] = target: T2, full length human LEPR (amino acids …); assay: FACS, 70 nM Ab, HEK293/Stat3-luc/hLEPR-FL, no Leptin

| Binder | Binding Ratio (normalized to unstained) [1] [fold] | Binding Ratio (normalized to unstained) [2] [fold] |
| --- | --- | --- |
| H4H16679P2 (antibody, V domains shown) VH: QVQLVESGGGVVQPGRSLRLSCTASGFTFSSYAMYWVRQAPGKGLEWVSVIYYDGSYKYYADSVKGRFTISRDNSKNTLYLQMDSLRAEDTAVYYCASYNWNYWYFDFWGRGTLVTVSS VL: not shown | 1080 | 51 |
| H4H16650P2 (antibody, V domains shown) VH: QVQLVESGGGVVQPGKSLRLSCVASGFTFSSDAMYWVRQAPGKGLEWVAVIYYDGNYQYYEDSVKGRFTISRDNSQNTLDLQMNSLRVDDTAVYFCARLNWDYWYLDLWGRGTLVTVSS VL: not shown | 707 | 42 |

Now from value to binder:

| Binding Ratio (normalized to unstained) [1] [fold] | Binding Ratio (normalized to unstained) [2] [fold] | Binder |
| --- | --- | --- |
| 1130 | 46 | H4H17321P2 (antibody, V domains shown) VH: QVQLVESGGGVVQPGRSLRLSCEASGFSSSDNAMYWVRQAPGKGLEWVSVIYHDGSYKYYEDSVKGRFTIARDNSKNTLYLQMNSLRAEDTAVYYCARYNWNHWYFDVWGRGTLVTVSS VL: not shown |
| 1130 | 47 | H4H17319P2 (antibody, V domains shown, also called REGN4461) VH: QVQLVESGGSVVQPGRSLRLSCAASGFTFSTYAMYWVRQTPGKGLEWVAVLYSDGSNKYYIDSVKGRFTISRDTSTNTLYLQMSSLRADDSALYYCARLNWDYWYFDLWGRGTLVTVSS VL: not shown |
